Experimental data: patent US20050014931A1 (ABGENIX, published 2005)

B1: Mab 1F10/7C5 (antibody, V domains shown)
VH: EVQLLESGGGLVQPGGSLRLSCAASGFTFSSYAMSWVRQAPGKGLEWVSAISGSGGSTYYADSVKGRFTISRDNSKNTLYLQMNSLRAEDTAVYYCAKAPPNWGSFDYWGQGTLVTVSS
VL: DIELTQSPLSLPVTLGQPASISCRSSQSLVYSDGNTYLNWFQQRPGQSPRRLIYKVSNWDSGVPDRFSGSGSGTDFTLKISRVEAEDVGVYYCMQGTHWPRTFGQGTKVEIKR
notes: also called Mab 7C5
B2: Mab 1A2 (antibody, V domains shown)
VH: not shown
VL: DIELTQSPDFQSVTPKEKVTITCRASQSIGSSLHWYQQKPDQSPKLLIKYASQSFSGVPSRFSGSGSGTDFTLTINSLEAEDAATYYCHQSSSLPRTFGQGTKVEIKR

Biological target: T1, Tetanus toxoid (UniProt P04958 2-1315)
T1 construct: also called TT
T1 sequence (P04958 2-457 limits assumed, chain 1 of 2): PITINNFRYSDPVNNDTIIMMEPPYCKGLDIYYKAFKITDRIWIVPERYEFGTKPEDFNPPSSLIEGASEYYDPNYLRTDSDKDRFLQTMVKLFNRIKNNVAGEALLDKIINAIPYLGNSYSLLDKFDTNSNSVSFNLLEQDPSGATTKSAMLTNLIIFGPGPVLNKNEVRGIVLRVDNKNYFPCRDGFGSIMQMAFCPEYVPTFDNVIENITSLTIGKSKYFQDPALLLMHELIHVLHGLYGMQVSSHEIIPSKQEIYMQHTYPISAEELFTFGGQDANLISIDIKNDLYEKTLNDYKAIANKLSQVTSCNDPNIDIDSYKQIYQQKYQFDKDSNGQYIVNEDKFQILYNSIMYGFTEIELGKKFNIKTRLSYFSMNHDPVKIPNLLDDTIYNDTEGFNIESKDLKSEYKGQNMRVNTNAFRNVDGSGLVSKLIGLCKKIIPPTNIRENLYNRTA
T1 sequence (P04958 458-1315 limits assumed, chain 2 of 2): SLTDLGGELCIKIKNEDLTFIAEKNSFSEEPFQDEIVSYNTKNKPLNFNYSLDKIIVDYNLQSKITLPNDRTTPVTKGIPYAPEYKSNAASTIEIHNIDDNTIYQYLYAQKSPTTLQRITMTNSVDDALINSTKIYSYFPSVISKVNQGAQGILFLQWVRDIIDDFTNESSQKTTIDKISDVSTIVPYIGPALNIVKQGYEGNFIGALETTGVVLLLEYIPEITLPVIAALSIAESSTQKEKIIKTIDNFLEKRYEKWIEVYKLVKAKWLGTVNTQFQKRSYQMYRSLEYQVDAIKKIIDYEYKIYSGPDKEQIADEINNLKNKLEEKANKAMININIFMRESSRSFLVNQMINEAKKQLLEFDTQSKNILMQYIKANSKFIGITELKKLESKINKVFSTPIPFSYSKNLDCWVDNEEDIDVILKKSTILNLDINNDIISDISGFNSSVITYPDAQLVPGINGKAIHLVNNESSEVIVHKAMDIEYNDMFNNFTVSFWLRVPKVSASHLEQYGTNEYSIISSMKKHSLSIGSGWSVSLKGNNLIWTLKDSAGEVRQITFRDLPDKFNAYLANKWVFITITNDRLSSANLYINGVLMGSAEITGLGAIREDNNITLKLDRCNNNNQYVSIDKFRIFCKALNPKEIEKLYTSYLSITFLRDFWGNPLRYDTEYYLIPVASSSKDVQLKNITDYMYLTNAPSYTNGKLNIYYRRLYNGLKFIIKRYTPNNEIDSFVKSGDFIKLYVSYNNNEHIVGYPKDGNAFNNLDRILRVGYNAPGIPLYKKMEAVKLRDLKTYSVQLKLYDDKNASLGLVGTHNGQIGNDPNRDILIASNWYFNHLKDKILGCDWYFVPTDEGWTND
Experiment: ELISA screen of hybridoma supernatants

Binder	binding result
B1	no binding
B2	no binding
